Key:
[1] = molecular target: Pyruvate kinase M2 (PKM2), endogenous in NIH-3T3 cells (mouse (endogenous in NIH-3T3)) (UniProt P52480); assay: cross-linking
[2] = molecular target: Pyruvate kinase M2 (PKM2), endogenous in U251-iUS28 cells (human (endogenous in U251)) (UniProt P14618); assay: cross-linking

Chain of Pyruvate kinase M2 (PKM2), endogenous in U251-iUS28 cells, P14618 1-531 (enzyme; other documents disagree on this pair) (P14618 whole entry): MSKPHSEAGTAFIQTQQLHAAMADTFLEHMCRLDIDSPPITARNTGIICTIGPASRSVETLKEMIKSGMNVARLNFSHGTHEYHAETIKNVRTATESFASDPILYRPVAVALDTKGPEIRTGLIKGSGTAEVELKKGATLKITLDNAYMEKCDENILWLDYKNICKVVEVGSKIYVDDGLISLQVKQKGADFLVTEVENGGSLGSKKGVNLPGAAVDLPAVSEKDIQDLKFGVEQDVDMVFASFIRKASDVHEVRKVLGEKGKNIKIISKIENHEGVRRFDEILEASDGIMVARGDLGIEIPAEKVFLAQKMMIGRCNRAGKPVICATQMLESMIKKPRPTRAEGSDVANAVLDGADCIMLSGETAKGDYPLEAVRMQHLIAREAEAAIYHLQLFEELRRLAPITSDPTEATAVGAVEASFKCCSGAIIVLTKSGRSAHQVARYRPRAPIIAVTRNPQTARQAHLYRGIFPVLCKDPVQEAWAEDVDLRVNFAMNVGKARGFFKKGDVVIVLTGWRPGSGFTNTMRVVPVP
Chain of Pyruvate kinase M2 (PKM2), endogenous in NIH-3T3 cells, P52480 1-531 (enzyme; other documents disagree on this pair) (P52480 whole entry): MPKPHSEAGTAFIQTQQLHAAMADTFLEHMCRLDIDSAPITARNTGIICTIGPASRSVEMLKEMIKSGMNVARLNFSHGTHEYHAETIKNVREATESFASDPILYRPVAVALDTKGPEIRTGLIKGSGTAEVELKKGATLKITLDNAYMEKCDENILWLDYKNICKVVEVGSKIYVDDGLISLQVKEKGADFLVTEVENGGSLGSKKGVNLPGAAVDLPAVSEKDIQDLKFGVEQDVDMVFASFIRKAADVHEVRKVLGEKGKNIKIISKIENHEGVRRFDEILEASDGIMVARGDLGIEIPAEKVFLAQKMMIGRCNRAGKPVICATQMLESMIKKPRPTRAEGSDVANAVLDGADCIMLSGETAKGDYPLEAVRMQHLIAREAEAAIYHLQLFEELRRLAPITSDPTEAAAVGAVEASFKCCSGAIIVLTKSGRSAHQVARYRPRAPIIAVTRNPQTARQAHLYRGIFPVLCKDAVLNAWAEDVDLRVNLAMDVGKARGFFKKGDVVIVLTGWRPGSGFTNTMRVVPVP

| Substance | stoichiometry N [1] | stoichiometry N [2] |
| --- | --- | --- |
| Pyruvate kinase M2 (PKM2), endogenous in NIH-3T3 cells, P52480 1-531 (enzyme; other documents disagree on this pair) | 2 | – |
| Pyruvate kinase M2 (PKM2), endogenous in U251-iUS28 cells, P14618 1-531 (enzyme; other documents disagree on this pair) | – | 2 |

Source: publication PMC5356532
